# Source: article PMC6033355, “A bi-specific inhibitor targeting IL-17A and MMP-9 reduces invasion and motility in MDA-MB-231 cells” (Oncotarget, 2018)
# Target: T1, HD_(N-TIMP2,V3) bi-specific heterodimer (N-TIMP2 fused by a linker to V3, the engineered soluble …)
# T1 construct: flexible linker; Order on the chain: N-TIMP2, linker, V3, human IgG1 Fc, 6xHis; Vector pFUSE-hIgG1e3-Fc1; Glycosylated; also called bi-specific fusion protein; source: HEK293F, transiently transfected, secreted, purified (Ni-NTA, gel filtration); not shown: Fc (human IgG1), C-terminal, kept
# Assay: BLI; Octet Red; HD_(N-TIMP2,V3) or V3 loaded on Protein A sensors (10 ug/ml, 300 s); IL-17A or MMP-9CAT in solution at 50, 100, 200 nM; 300 s association, 1800-2500 s dissociation; 30 C; PBS, 1% BSA, 0.05% Tween; 1:1 binding model
# Conditions: both partners purified
binder,measurement,value
"MMP-9CAT (soluble MMP-9 catalytic domain) (enzyme, Active enzyme, catalytic and structural Zn2+ and Ca2+ (assay buffer has 5 mM CaCl2). Limits are not printed in the text given. Taken by convention from the MMP-9 catalytic domain lacking the …) FQTFEGDLKWHHHNITYWIQNYSEDLPRAVIDDAFARAFALWSAVTPLTFTRVYSRDADIVIQFGVAEHGDGYPFDGKDGLLAHAFPPGPGIQGDAHFDDDELWSLGKGQGYSLFLVAAHEFGHALGLDHSSVPEALMYPMYRFTEGPPLHKDDVNGIRHLY",Kd,1.65 ± 0.02 nM
